Laboratory results published in patent US6515110.

Experiments:
[1] = biological target: TAG-72 antigen on a human breast carcinoma extract (human); assay: competition ELISA, competitor biotin-CC49 IgG, human breast carcinoma extract
[2] = biological target: TAG-72 antigen on a human breast carcinoma extract (human); assay: competition RIA, competitor 125I-CC49 IgG, human breast carcinoma extract

Substance	fold higher protein concentration needed to displace the IgG (against CC49/212 single-chain Fv) [1] [fold]	fold higher protein concentration needed to displace the IgG (against CC49 IgG and bivalent CC49/212) [2] [fold]
CC49/4-4-20 heterodimer Fv (fraction 5) (bispecific antibody)	200	
CC49/212 single-chain antigen-binding protein (monomer) (scFv)		10
